Assay results: the supplement of paper PMC10567573

B1: FAM46C (parent)
chain: FDHLQNRLIATKNPEEIRGGGLLK
B2: TPPP (parent)
chain: LCKDCQVIDGRNVTVTDVDIVFSK

Variants of: B1
Test: protein stability index of a GFP-peptide fusion (GPS, HEK-293T) (PSI 1-6); higher = more stable
Settings: c terminus: a fixed tail appended
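Further: lentivirally expressed fusions sorted by FACS into six bins by GFP to DsRed ratio, PSI derived from sequencing read proportions per bin multiplied by bin number.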

Variant	protein stability index
GDHLQNRLIATKNPEEIRGGGLLK [F1G]	3.9
NDHLQNRLIATKNPEEIRGGGLLK [F1N]	4.4
LDHLQNRLIATKNPEEIRGGGLLK [F1L]	4.51
MDHLQNRLIATKNPEEIRGGGLLK [F1M]	4.39
EDHLQNRLIATKNPEEIRGGGLLK [F1E]	4.33
DDHLQNRLIATKNPEEIRGGGLLK [F1D]	5.18
CDHLQNRLIATKNPEEIRGGGLLK [F1C]	2.3
PDHLQNRLIATKNPEEIRGGGLLK [F1P]	4.59
HDHLQNRLIATKNPEEIRGGGLLK [F1H]	4.47
KDHLQNRLIATKNPEEIRGGGLLK [F1K]	4.45
QDHLQNRLIATKNPEEIRGGGLLK [F1Q]	4.74
IDHLQNRLIATKNPEEIRGGGLLK [F1I]	3.5

Variants of: B2
Test: as above
Settings: c terminus: a fixed tail appended

Variant	protein stability index
LCKDCQVIDGRNVTVTDVDIVFKK [S23K]	3.58
LCKDCQVIDGRNVTVTDVDIVFQK [S23Q]	2.6
LCKDCQVIDGRNVTVTDVDIVFAK [S23A]	2.55
LCKDCQVIDGRNVTVTDVDIVFHK [S23H]	3.26
LCKDCQVIDGRNVTVTDVDIVFDK [S23D]	2.81
LCKDCQVIDGRNVTVTDVDIVFNK [S23N]	2.75
LCKDCQVIDGRNVTVTDVDIVFGK [S23G]	3.13
LCKDCQVIDGRNVTVTDVDIVFPK [S23P]	2.98
LCKDCQVIDGRNVTVTDVDIVFMK [S23M]	1.84
LCKDCQVIDGRNVTVTDVDIVFFK [S23F]	1.58
LCKDCQVIDGRNVTVTDVDIVFCK [S23C]	3.21
LCKDCQVIDGRNVTVTDVDIVFYK [S23Y]	1.72
LCKDCQVIDGRNVTVTDVDIVFRK [S23R]	2.35
LCKDCQVIDGRNVTVTDVDIVFLK [S23L]	1.82
LCKDCQVIDGRNVTVTDVDIVFEK [S23E]	3.28
LCKDCQVIDGRNVTVTDVDIVFWK [S23W]	2.31
LCKDCQVIDGRNVTVTDVDIVFTK [S23T]	2.23
LCKDCQVIDGRNVTVTDVDIVFIK [S23I]	2.1
LCKDCQVIDGRNVTVTDVDIVFSP [K24P]	2.62
LCKDCQVIDGRNVTVTDVDIVFSW [K24W]	2.25
LCKDCQVIDGRNVTVTDVDIVFSY [K24Y]	2.06

Variant	protein stability index
LCKDCQVIDGRNVTVTDVDIVFSE [K24E]	3.39
LCKDCQVIDGRNVTVTDVDIVFSL [K24L]	2.99
LCKDCQVIDGRNVTVTDVDIVFSG [K24G]	2.55
LCKDCQVIDGRNVTVTDVDIVFSH [K24H]	2.48
LCKDCQVIDGRNVTVTDVDIVFSQ [K24Q]	2.35
LCKDCQVIDGRNVTVTDVDIVFSN [K24N]	3.05
LCKDCQVIDGRNVTVTDVDIVFSR [K24R]	2.39
LCKDCQVIDGRNVTVTDVDIVFSA [K24A]	2.24
LCKDCQVIDGRNVTVTDVDIVFSS [K24S]	2.44
LCKDCQVIDGRNVTVTDVDIVFSD [K24D]	2.77
LCKDCQVIDGRNVTVTDVDIVFST [K24T]	1.97
LCKDCQVIDGRNVTVTDVDIVFSC [K24C]	2.02
LCKDCQVIDGRNVTVTDVDRVFSK [I20R]	3.22
LCKDCQVIDGRNVTVTDVDLVFSK [I20L]	3.02
LCKDCQVIDGRNVTVTDVDYVFSK [I20Y]	2.63
LCKDCQVIDGRNVTVTDVDMVFSK [I20M]	2.5
LCKDCQVIDGRNVTVTDVDKVFSK [I20K]	3.27
LCKDCQVIDGRNVTVTDVDNVFSK [I20N]	3.5
LCKDCQVIDGRNVTVTDVDSVFSK [I20S]	2.55
LCKDCQVIDGRNVTVTDVDPVFSK [I20P]	3.14
LCKDCQVIDGRNVTVTDVDQVFSK [I20Q]	3.79

Variant	protein stability index
LCKDCQVIDGRNVTVTDVDTVFSK [I20T]	3.06
LCKDCQVIDGRNVTVTDVDWVFSK [I20W]	1.98
LCKDCQVIDGRNVTVTDVDIQFSK [V21Q]	2.15
LCKDCQVIDGRNVTVTDVDINFSK [V21N]	3.45
LCKDCQVIDGRNVTVTDVDIPFSK [V21P]	2.66
LCKDCQVIDGRNVTVTDVDIWFSK [V21W]	2.07
LCKDCQVIDGRNVTVTDVDICFSK [V21C]	2.53
LCKDCQVIDGRNVTVTDVDIAFSK [V21A]	3.47
LCKDCQVIDGRNVTVTDVDISFSK [V21S]	3.34
LCKDCQVIDGRNVTVTDVDIIFSK [V21I]	1.87
LCKDCQVIDGRNVTVTDVDIDFSK [V21D]	4
LCKDCQVIDGRNVTVTDVDIHFSK [V21H]	2.65
LCKDCQVIDGRNVTVTDVDIYFSK [V21Y]	2.08
LCKDCQVIDGRNVTVTDVDIEFSK [V21E]	3.88
LCKDCQVIDGRNVTVTDVDIFFSK [V21F]	1.8
LCKDCQVIDGRNVTVTDVDIRFSK [V21R]	2.46
LCKDCQVIDGRNVTVTDVDIMFSK [V21M]	1.96
LCKDCQVIDGRNVTVTDVDITFSK [V21T]	3.2
LCKDCQVIDGRNVTVTDVDIKFSK [V21K]	3.22
LCKDCQVIDGRNVTVTDVDIGFSK [V21G]	3.28
LCKDCQVIDGRNVTVTDVDILFSK [V21L]	2.54

Variant	protein stability index
LCKDCQVIDGRNVTVTDVDIVCSK [F22C]	3.38
LCKDCQVIDGRNVTVTDVDIVHSK [F22H]	4.43
LCKDCQVIDGRNVTVTDVDIVASK [F22A]	2.5
LCKDCQVIDGRNVTVTDVDIVNSK [F22N]	3.66
LCKDCQVIDGRNVTVTDVDIVGSK [F22G]	4.09
LCKDCQVIDGRNVTVTDVDIVISK [F22I]	2.09
LCKDCQVIDGRNVTVTDVDIVVSK [F22V]	2.53
LCKDCQVIDGRNVTVTDVDIVMSK [F22M]	3.12
LCKDCQVIDGRNVTVTDVDIVTSK [F22T]	3.48
LCKDCQVIDGRNVTVTDVDIVDSK [F22D]	3.96
LCKDCQVIDGRNVTVTDVDIVKSK [F22K]	3.94
LCKDCQVIDGRNVTVTDVDIVPSK [F22P]	3.47
LCKDCQVIDGRNVTVTDVDIVYSK [F22Y]	2.84
LCKDCQVIDGRNVTVTDVDIVESK [F22E]	4.25
LCKDCQVIDGRNVTVTDVDIVWSK [F22W]	2.3
LCKDCQVIDGRNVTVTDVDIVLSK [F22L]	2.08
LCKDCQVIDGRNVTVTDVDIVRSK [F22R]	3.31
LCKDCQVIDGRNVTVTDVDIVQSK [F22Q]	3.59
LCKDCQVIDGRNVTVTDVDIVSSK [F22S]	2.78
